Earlier results, collected in PMC3726369.
Like-named read-outs stand apart in the source and are kept apart here.

Experiments:
[1] = target: LH receptor (Homo sapiens) (UniProt P22888)
[2] = target: LH receptor (Homo sapiens) (UniProt P22888); remark: listed apart in the source
[3] = target: LH receptor (Rattus norvegicus) (UniProt P16235)
Sequence of UniProt P16235 (P16235 27-700): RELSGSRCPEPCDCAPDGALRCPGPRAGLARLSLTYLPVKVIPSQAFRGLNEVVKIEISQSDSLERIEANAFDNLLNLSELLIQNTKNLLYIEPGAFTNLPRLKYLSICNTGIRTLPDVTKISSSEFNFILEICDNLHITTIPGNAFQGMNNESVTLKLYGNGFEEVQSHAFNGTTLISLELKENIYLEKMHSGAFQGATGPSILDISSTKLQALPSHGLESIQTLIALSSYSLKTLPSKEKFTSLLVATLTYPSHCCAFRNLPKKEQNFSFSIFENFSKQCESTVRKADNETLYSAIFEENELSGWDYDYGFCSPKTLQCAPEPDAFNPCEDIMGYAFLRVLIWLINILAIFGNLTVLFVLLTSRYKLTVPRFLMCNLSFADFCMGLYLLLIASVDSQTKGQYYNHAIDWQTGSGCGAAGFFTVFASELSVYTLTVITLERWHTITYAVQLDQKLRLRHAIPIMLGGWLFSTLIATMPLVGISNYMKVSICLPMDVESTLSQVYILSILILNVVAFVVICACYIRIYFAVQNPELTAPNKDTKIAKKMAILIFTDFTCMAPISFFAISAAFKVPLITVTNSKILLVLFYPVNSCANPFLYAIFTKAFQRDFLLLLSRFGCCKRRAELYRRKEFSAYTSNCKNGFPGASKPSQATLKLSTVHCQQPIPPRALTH

Sequence of UniProt P22888 (P22888 27-699): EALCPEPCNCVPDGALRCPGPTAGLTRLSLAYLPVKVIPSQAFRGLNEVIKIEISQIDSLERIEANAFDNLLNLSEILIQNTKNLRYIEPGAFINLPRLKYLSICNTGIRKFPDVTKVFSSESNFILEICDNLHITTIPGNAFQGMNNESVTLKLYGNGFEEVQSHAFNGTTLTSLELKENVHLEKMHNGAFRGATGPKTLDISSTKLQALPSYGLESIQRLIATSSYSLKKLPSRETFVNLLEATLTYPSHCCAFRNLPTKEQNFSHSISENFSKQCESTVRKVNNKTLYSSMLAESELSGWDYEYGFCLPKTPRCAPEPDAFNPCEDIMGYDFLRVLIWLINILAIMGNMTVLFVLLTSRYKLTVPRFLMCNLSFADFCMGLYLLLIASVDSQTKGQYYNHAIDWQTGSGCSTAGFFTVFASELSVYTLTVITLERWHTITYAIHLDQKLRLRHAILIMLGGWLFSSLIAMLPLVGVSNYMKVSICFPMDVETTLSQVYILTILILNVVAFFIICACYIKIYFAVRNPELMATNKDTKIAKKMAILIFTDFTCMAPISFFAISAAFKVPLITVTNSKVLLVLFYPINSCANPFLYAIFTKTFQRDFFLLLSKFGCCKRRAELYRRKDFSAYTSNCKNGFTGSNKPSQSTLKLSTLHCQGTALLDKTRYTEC

| Substance | Kd [1] | Kd [2] | Kd [3] |
| --- | --- | --- | --- |
| hCG (from UniProt P01215) | 4 nM | – | – |
| LH (from UniProt P01215) | – | 9 nM | 0.09 nM |
